What was measured:
cumulus cells = assay: Cumulus cell apoptosis in oocytectomized complexes (OOX) and COC, TUNEL with confocal microscopy; format: cell-based, Bovine; conditions: for effect on incidence of cumulus cell apoptosis: OOX cultured with increasing doses (GDF-9 0-175 ng/ml, BMP-6 0-100 ng/ml, BMP-15 0-20% v/v, 5-50 DO), presence or absence of FSH
Description: Bovine ovaries were collected from local abattoir and transported to the laboratory in warm saline (30-35° C.). Cumulus-oocyte complexes (COC) were aspirated from antral follicles (2- to 8-mm diameter) using an 18-gauge needle and a 10-ml syringe containing ˜2 ml aspiration media (Hepes-buffered Tissue Cultured Medium-199: TCM-199, ICN Biochemicals, Irvine, Calif., USA) supplemented with 50 μg/ml kanamycin (Sigma-Aldrish, St. louis, Mo.), 4 mg/ml fatty acid-free bovine serum albumin (FAF-BSA) (ICPbio ltd, Auckland, NZ). Intact COC with compact cumulus vestment greater than five cell layers and evenly pigmented cytoplasm were selected under a dissecting microscope and washed twice in Hepes-buffered TCM-199 and once in corresponding culturing media.
The cytoplasm of each oocyte was microsurgically removed from the COC (oocytectomy) using a micromanipulator as described in Buccione et al (Buccione et al. (1990) Dev Biol 138, 16-25.). The resulting oocytectomized complex (OOX) consists of a hollow zona pellucida surrounded by several layers of intact CC.
Denuded oocytes (DO) were generated by removing CC from COC by vortexing for approximately 4 minutes in 2 ml H-TCM-199/BSA. Any remaining CC were removed by repeated passage of the oocytes through a fine-bore fire-polished glass pipette in H-TCM-199/BSA.
CC apoptoic DNA was detected using TUNEl (Roche Diagnostic, Penzberg, Germany) according to the manufacturer's instructions. Briefly, following culture COC and OOX complexes were washed twice in PBS (pH 7.4) containing 1% BSA, fixed in 4% paraformaldehyde in PBS (pH 7.4) overnight at 4° C. and washed twice with PBS/BSA before placing on Cell-Tak-coated coverslips (Beckton Dickinson Biosciences, Franklin lakes, N.J.). Complexes were then permeabilized in 0.11/u Triton X-100 in 0.1% sodium citrate for 1 hour at room temperature and washed 3 times in PBS/BSA. The complexes were then incubated in fluorescein-conjugated dUTP and terminal deoxynucleotide transferase (TUNEl reagents, Roche) for 1 hour at 37° C. in the dark. Positive controls were incubated in DNAse 1 (0.005 U/µl), which cleaves all DNA, for 20 minutes at room temperature and washed twice in PBS/BSA before TUNEl. Negative controls were incubated in fluorescein-dUTP in the absence of TdT. After TUNEl, complexes were washed twice in PBS/BSA and counterstained with propidium iodide 0.5 μg/ml (PI) plus RNase A (0.1 mg/ml) for 1 hour at room temperature in the dark to label all nuclei. Complexes were then washed twice in PBS/BSA and mounted with slight coverslip compression in VectaShield anti-bleaching solution (Vector labs, Burlingame, Calif.), and stored in the dark at 4° C. for confocal analysis.
Apoptosis in COC and OOX was visualised and quantified using confocal microscopy. Dual fluorescence emission from CC was detected using a Nikon C1 Confocal Scanning Head and a Nikon TE2000E microscope (Nikon, Tokyo, Japan). Simultaneous emission capture of the apoptotic signal (fluorescein, lacer excitation 488 nm, emission 510-530 nm) and the nuclear signal (propidium iodide, excitation lacer 532, emission 590-640 nm) was performed.
In order to generate an accurate representation of the overall apoptotic incidence for all complexes, the depth of each complex was measured through a Z series to divide the construct into three percentiles (optical Z plane sections) at 25%, 50% and 75%. These optical section images were acquired and saved as independent colour channels (green, apoptotic cumulus fluorescence and red, nuclear cumulus fluorescence). The captured images were then processed in Scanalytics IPlab software Version 3.6. (Scanalytics, Fairfax, Va.). Quantification of CC number (for each colour channel) was independently measured using a macro script utilizing an auto segmentation filter for each optical section percentile (3 optical “z”-plane sections for each complex).

[1] = test system: Smad 1-responsive BRE-luciferase reporter; assay: Smad 1-responsive BRE-luciferase reporter in mural granulosa cells from large antral follicles; format: cell-based, marmoset monkey, Callithrix jacchus; conditions: 48 h; 0.5 ng/ml TGFβ1, 88-265 ng/ml GDF9, 50 ng/ml BMP7 or 60 mouse oocytes
Description: FIGS. 18A and 18B show the activation of the TGF-β signalling pathway by GDF9 and oocytes. MGC from large follicles were transiently transfected with either a Smad 3-responsive CAGA-luciferase reporter construct (A) or a Smad 1-responsive BRE-luciferase reporter construct (B). Cells were subsequently left untreated, treated with 0.5 ng/ml TGFβ1, 88-265 ng/ml GDF9, 50 ng/ml BMP7 or co-cultured with 60 mouse oocytes. Cells were cultured for 48 h after which time luciferase activity was measured from cell extracts. Bars represent means+/− SEM from 3 replicate experiments expressed as a fold change relative to control.
Luciferase reporter constructs responsive to specific phosphorylated Smads were used to detect the activation of mural GC Smad proteins by recombinant GDF9 Mural GCs were collected and processed as described above, except cells were given a final wash in DMEM(MP Biomedicals, Seven Hills, Australia)+2% FCS (Trace Biosciences, Castle Hill, Australia). Following the final wash, cells were transferred to individual wells of a 96-well plate (Falcon) and cultured at 1.6×10^5 cells/ml. After 4 hours of culture, cells were transiently transfected with 50 ng of luciferase reporter construct DNA using Fugene 6 (Roche Diagnostics, Castle Hill, Australia). 18 hours after transfection, medium was aspirated from cells and replaced with DMEM supplemented with 0.1% FCS. Various ligands were added to cells at this point (see below) and the culture period extended for a further 48 hours. Experiments were terminated by removing media from wells and freezing plates at −20° C. […]
Seven adult female marmosets were primed with […] for 6 days, whole ovaries were removed on day 7, follicles manually excised, and GC were then collected from 3 size classes: periantral (PA; 0.42-0.66 mm), small antral (SA; 0.66-1.5 mm) and large antral (LA; >1.5 mm). […] In order to determine the effects of GDF9 on marmoset GC proliferation, we employed a GC bioassay whereby after 24 h ^3H-thymidine incorporation is assessed as an indicator of DNA synthesis and cellular proliferation. […]

Row | Molecule | effect on incidence of cumulus cell apoptosis (cumulus cells) | BRE-luciferase activity compared to control levels [1] | effect on cumulus cell apoptosis (cumulus cells; OOX treated with 100 ng/ml BMP-7 and/or 10% BMP-15) | effect on CC apoptosis, test for additive effect (cumulus cells; OOX treated with DO, 10 ng/ml BMP-6 and/or 10% v/v BMP-15)
1 | GDF-9: Recombinant mouse GDF-9 produced in-house in transfected 293H cells, partially purified by HIC (protein, UniProt Q07105 307-441, looked up) Growth/differentiation factor …: GQKAIRSEAKGPLLTASFNLSEYFKQFLFPQNECELHDFRLSFSQLKWDNWIVAPHRYNPRYCKGDCPRAVRHRYGSPVHTMVQNIIYEKLDPSVPRPSCVPGKYSPLSVLTIEPDGSIAYKEYEDMIATRCTCR | no significant effect | not activated | – | –
2 | BMP-15: Recombinant ovine BMP-15 produced in-house in transfected 293H cells, partially purified by hydrophobic interaction chromatography; dosed as % v/v (protein, UniProt Q9MZE2 269-393, looked up) Bone morphogenetic protein 15: QAGSIASEVPGPSREHDGPESNQCSLHPFQVSFQQLGWDHWIIAPHLYTPNYCKGVCPRVLHYGLNSPNHAIIQNLVSELVDQNVPQPSCVPYKYVPISILLIEANGSILYKEYEGMIAQSCTCR | significantly reduced | – | significantly reduced | significantly (P<0.001) decreased
